The values below come from US20210171950, “METHOD OF PRODUCING AN APTAMER AND USES THEREOF” (City University of Hong Kong, published 2021).

The data set addresses T1, RHAU53 peptide (DHX36/RHAU residues 53-106 as printed) (UniProt Q9H2U1 SEQ:1-53).
T1 sequence: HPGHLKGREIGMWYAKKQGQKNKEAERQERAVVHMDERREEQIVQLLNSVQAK
Kind of data set: EMSA; 80 nM RHAU53, 2 nM FAM-D-TERRA; 25 mM Tris-HCl pH 7.5, 150 mM KCl, 1 mM MgCl2, 37 C; gel with 40 mM KOAc; complex formation inhibited by L-RNA Ap3-7 (SEQ 19, binds the TERRA RNA) with IC50 937.1±1.7 nM. The settings on record: tags: peptide obtained from OriGene; label: 5'FAM; G4 (3 G-quartets, UUA loops). How it is done: L-RNA Ap3-7 and S′FAM labelled D-RNA TERRA were heated at 75° C. for 3 minutes and cooled down separately. Then, reaction mixtures containing 2 nM 5′FAM labelled D-TERRA, 25 mM Tris-HCl (pH 7.5), 150 mM KCl and 1 mM MgCl₂ were prepared. Corresponding amount of L-Ap3-7 and 80 nM RHAU53 were premixed, then added to the specific samples and incubated at 37° C. for 30 minutes. The final samples were loaded onto a native PAGE (6%, 49:1), containing 40 mM KOAc, 1 mM MgCl₂ and 0.5×TBE (pH 8.3), and run at 30 mA for 75 minutes.
To study if L-Ap3-7 can compete with rG4-binding protein and inhibit the D-TERRA rG4-protein complex formation, the inventors have tested it with RHAU53 peptide. Particularly, L-RNA Ap3-7 and S′FAM labelled D-RNA TERRA were heated at 75° C. for 3 minutes and cooled down separately. Then, reaction mixtures containing 2 nM 5′FAM labelled D-TERRA, 25 mM Tris-HCl (pH 7.5), 150 mM KCl and 1 mM MgCl₂ were prepared. Corresponding amount of L-Ap3-7 and 80 nM RHAU53 were premixed, then added to the specific samples and incubated at 37° C. for 30 minutes. The final samples were loaded onto a native PAGE (6%, 49:1), containing 40 mM KOAc, 1mM MgCl₂ and 0.5 X TBE (pH 8.3), and run at 30 mA for 75 minutes. […]
(In general: In EMSA bound probe runs differently from free probe, usually more slowly.)

B1: D-TERRA rG4 (ssRNA)
RNA: UUAGGGUUAGGGUUAGGGUUAGGG
Consider B1, for which the binding result is “binds”.
